For 25 sequences, protein production results are on record in a protein production outcome set (Wang et al. 2014).
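Note: failed if final PepcDB status was selected cloned or expressed and not failed if soluble or beyond.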

This data set in a line: label from the status in PepcDB records.
“MDRFDAMRAFARVVETGSFTKAADTLHMSKTSVTQLVQQLEARLRVRLLNRTTRKVNATADGAAYYERVRQLLADLEDAETSLSGASATPGGRLRVDVPSPFASTILVPALPAFQARYPDILLHLGVSDREVDLIDENVDCVIRGGQIGNLSLAARHVGDLQLGVYASPGYLARAGVPAHPRELQDAQHRIIGFSWSRARRLFPCAMRRRADERIEVAGRHALLLDEGNAYLAAGLAAMGVIGVPTYMAEAHVERGALIRLFGDWRLDPMPLYIAYPQNRHVSAKLRVFIDWIVELMARHAPVTDAPPPHRSARMPGGPAAIPTDITGA”: the protein production entry is “failed”.

For “MTTEPVDYVSPLVGTQSKHALSTGNTYPAIAMPWGMNFWVAQTGKMGDGWAYTYDADKIRGFKQTHQPSPWINDYGQFAIMPVTGKVVFDQDQRASWFSHKAEVAKPYYYKVYLADHDVTTEIAPTSRAAMFRFTFPESKDSYVVVDAFDNGSYVKVIPEENKIIGYTTKNSGGVPENFKNYFVLVFDKPFTFTAAVTNGNIRPGELEHHHHHH”, the protein production result is “failed”.

Regarding “MKFVKIALIVAVVAIALFAAKQTGILEIITDIKSLQDWIASFGVWGYAVFVAAFVFACVFLLPGSAFTIVAGIVFGPIKGGILALFSATLGAVAAFIVARFLLRNTIMKKFGDNPIFKKIDDGVAANGTSFLILTRLVPVFPFSLQNYAYGLTSLNLGTYALVSLLTMAPGAFIFAYMAGDIATNGVSVMLLVKFAVAGLVLFGMSLIPKYIAKKKGINMEELAK”, the protein production entry is on record as “failed”.

With “MQQIWGSERRRTAIGRMALSVPARQALADRQLVAERTILDYGCGRGDDVRALQQLDCQVVGWDPYYRTDTQLVATDVVLLTYVLNVIEDPAERRQTLKQAWELTSTLLVVSARLTWEKSKVHGEGFGDGLLTSRQTFQHLYATSELREYVEQVTGAR”, the protein production entry is “failed”.

Regarding “MSLRAVRLHAKWDPRPEFKLGPKDIEGKLTWLGSKVWRYPEVRVEEVPEPRIEKPTEIIIKVKACGICGSDVHMAQTDEEGYILYPGLTGFPVTLGHEFSGVVVEAGPEAINRRTNKRFEIGEPVCAEEMLWCGHCRPCAEGFPNHCENLNELGFNVDGAFAEYVKVDAKYAWSLRELEGVYEGDRLFLAGSLVEPTSVAYNAVIVRGGGIRPGDNVVILGGGPIGLAAVAILKHAGASKVILSEPSEVRRNLAKELGADHVIDPTKENFVEAVLDYTNGLGAKLFLEATGVPQLVWPQIEEVIWRARGINATVAIVARADAKIPLTGEVFQVRRAQIVGSQGHSGHGTFPRVISLMASGMDMTKIISKTVSMEEIPEYIKRLQTDKSLVKVTMLNEGHHHHHH”, the protein production result is given as “not failed”.

Consider “MAIRSALMNVMLIAVKKAAKGLVRDFGELENLQVSRKGPSDFVSNADLKAEKILKAELRKARPAYSFLMEESGAEDGADTSRRWIVDPLDGTTNFLHGIPHFAISVALEEKGEIVAGVIYNPILDELYTAEKGNGAFVNDRRLRVSGRRDLAESLFATGIPFQGKGGHARFLGQLAKVMAKTSGVRRIGAASLDLAYVAAGRVDGYWEEGLHPWDCAAGILLVKEAGGYVTTLDGKPDPLRQGSLLAANPLMHPLLGELLAEE”, for which the protein production result is reported as “failed”.

As to “MIELEGVPELVDPVMVAAFEGWNDAGDAASTAVAHLDREWKGEVFAALDAEDYYDFQVNRPTVFMEDGVRKITWPTTRLSVVRVGGDKPRDLVLVRGIEPSMRWRSFCNELLGFAHELGVELVVVLGALLGDTPHTRPVPISGTTSDADLARRMDLEETKYEGPTGIVGILQEACTHAGVPAVSLWAAVPHYVSQPPNPKATLALLNRLEDLIGVRVPLGELPEDARAWQVGVDQLAAEDTEVAEYVQSLEEARDTA”, the protein production entry is on record as “not failed”.

As to “MARLNVNPTRMELSRLKKQLTTATRGHKLLKDKQDELMRRFIALVKENNELRIQVEQEVTDALSNFVLANATLNEAFIEELVAIPAEKVELEIIEQNILSVPVPKMIFDYDESVQEAPLDYGYVNSNSELDQAFAKISSILPKLLALANVEKTCQLLSKEIEKTRRRVNALEYMTIPQLEETIYYIQMKLEENERGEITRLIKIKSMNKENLEHHHHHH”, the protein production result is recorded as “failed”.

Regarding “LFSSRDILEVLQDIHMETGETVAIATKNDIYLQYIQIIESVHALRFHVDENAIRPLTMSSNGWMLMSTMNDKAIDNTVRRANTITQKDGIRFEVDDMMARIRQVREQGYASAEHIPFVGGGTICVLLPMTIQGQPVTMGLGGALDRIKQNYDRYLELLLNGVQQLKKSDSFHQPI”, the protein production entry is listed as “not failed”.

Turning to “DEIFCRVYMPDHSYVTIRSRLSASVQDILGSVTEKLQYSEEPAGREDSLILVAVSSSGEKVLLQPTEDCVFTALGINSHLFACTRDSYEALVPLPEEIQVSPGDTEI”, the protein production entry is reported as “not failed”.

“MQLPTQQVAVLDAASTDDPQRIEALAADTDYPPETIAGAALALEAEGLVAVTETTTTTVSLTDEGHAYATDGLPEVRLYRAALDAGADDAPVEMGSVIGAAGLDGPQVDIALSNYARKGYGTIDSGALAADPDADPENDPEADALATLTDGDSVDDDAVVDQLASRDLVTVSERTVRSVTLTEAGVTELMAGVEATDEVGELTPELLASGEWADVEFADYNVAADAADHTPGKTHVLRQAAERVTDVLVGMGFQEMAGPHVDADFYINDCLFMPQDHPARNHWDRFALSNPARIDELPDALVERVERAHREGAGDDGDGYHSPWDEDFARALALRGHTTSLTARHLAGLADADVEAPARYFSVEKAYRNDTLDATHLLEFFQIEGWVLADDLSVRDLMGTFREFYSQFGIHDLQFKPTYNPYTEPSFELFGRHPETGELIEIGNSGIFRPEMLDPLDVDGDVMAWGLALERLLMLMTGFEDIRDVHGTLCDVGFLRNAEVVY”: the protein production result is “failed”.

With “MRAALTGGGLVLAYTAVISSADAITKLIAQGYAAPQLYAISGLIVAAISLAAARRNRARALKTVCPRAMALRALATVVASLCFFHTFRLLPFADVFVFIGLMPIMAALMSGLMLDEHARPAAWAALVAGFVGVLCLMPGGIGAIGAGHLWALGGVVTGTFSLILSRYIGRYESNALAQVFYPNLALGLSMAAALPFVWVPMPMLDLAWVGAYAALLFLARWLLVIALRLLAAYVVTPLLNLQFVWMVALGALAFGEWPAPMTWLGAAIVMVSGLYLIWDQMTPTTREQEELSLRTDP”, the protein production entry is “failed”.

Regarding “GYAVSVRVGGKEHRHWERYDIDSDFLIPADSFDFVIGRLGPEAAIPDLSGESCEVVIDGQIVMTGIIGSQRHGKSKGSRELSLSGRDLAGFLVDCSAPQLNVKGMTVLDAAKKLAAPWPQIKAVVLKAENNPALGKIDIEPGETVWQALTHIANSVGLHPWLEPDGTLVVGGADYSSPPVATLCWSRTDSRCNIERMDIEWDTDNRFSEVTFLAQSHGRSGDSAKHDLKWVYKDPTMTLHRPKTVVVSDADNLAALQKQAKKQLADWRLEGFTLTITVGGHKTRDGVLWQPGLRVHVIDDEHGIDAVFFLMGRRFMLSRMDGTQTELRLKEDGIWTPDAYPK”, the protein production result is reported as “not failed”.

Take “MSGNVGAGRHADELAIRTVQYRWLEATRKFDRQVLSSLMTDDVVFLTPGRLPFGKEEFLAACEQNDQRVIIEASATFEEIVIVEPMAYTRTHLHIKVTPRSGGAVRELAGHAMSIFRRSMFGEWQLARDANLVVPI”: the protein production entry was “not failed”.

Turning to “MKHLPKHLRPRWRYLAVGIETWPNASFGRRAFQREVWYAAQNLLGDTGSAETDMTVLQFHDYDGTAEAIVRTRRGQTNPARAALTCLDSVDDDDVRVRVRGISGTVRACEEKYIRGPPEFTEQRHVVFENADRSATVRPPRYDVETASDGAFVGATALDFR”, the protein production entry is reported as “failed”.

In the case of “MPRLAISRLWPMLTAVALLSPLATAQQGQTLRAGELTVTLTPTQPDSNGWYRAGRLELQGTDEGIRGVETSRLRGAVLGELSPDGRWLSVLGTGGGYVQLWNVATAERQFTFLAHDKKSYDARLAAFSPDSRRLVFYSYPNELSLWDTATGVRVKLLSDVRKGGWWTADADAVFSPDGKTFVVTGGGGGAQLFDTRTGDLLQTFDRPCQSFGPGSPGGFWRGAVGATFSADGKNVAVLYAGGAARLYGVAGAGALAKASWKLDNFKPSQMRFWAGKLTLNGRELSGKTPNGLSFTLTF”, the protein production entry is given as “failed”.

Take “MTVPHPESVGEPGIAVRAPARRRSAWHGQAPVVAVVALGGGIGGTARYAAALLWPTQSGGFPWTTFWVNVVGCAVIGVFMVVITDVWPAHRLVRPFFGTGVLGGFTTFSTYAVDIQKLVDAGHPRTALAYLAATLLAALAAVRLAATAARRVLVRRRR”: the protein production result is recorded as “failed”.

“KQKRMQAMIVTNHPEKVIEKIHKKLHRGATMIHDAEGTYNHERKAVLITVITRAEFNEFKQIMTQVDPSSFVSVSENVHILGRFVEIDN”: the protein production result was “failed”.

As for “MGRRFDHLGDVEAFIIVAEKGSMTEAAVALATTASVLSRAITRLETRLGAQLMRRTTRRLNLTDEGRAYLEQARAAFSMIDDAERAIQGPTGASLTGHVRISVPTTYGHHRLPAMLERFMQAYPEVQIELSITNRNVDLVAEGYDLAIRLGPLPDSGLVARKLEDASLRLVAAPHYLERAGMPQDVEDLAEHQCLPFVMPSTGRCAPWLFHVDGRDLDWTPPGRIQVFDDVLGVVSLAESGLGICQIYDFIIRDRVKEGRLVEVLDHAQGRFRPFSLIFAPHRRLSAATRTLIDFLVEK”, the protein production result is recorded as “failed”.

Consider “MTAHFRPAVYDLPRDGHTVFRWEHPPQQATVELERLQRKQSLAAAFRVFARLGFDMGGAGHITVRDPGRPDHFWVNPVGVYFGHVRVRDLLLVNPEGAVIEGEGALNLAAFAIHAALHEAHPEVVAAAHAHSLYGKAWSSLGRLLDPLTQDACAFYERHGLFDNFSGVVLEASEGVRIAAALAGRKALILQNHGLLTVGETVEAAVWRFIAMDNAAQTQLLAEAAGTPRPIPHEVARHTARQVGTEFGGWFSFQPYRERIVREEPDFLDLEHHHHHH”, for which the protein production result was “failed”.

“MALPRPTSPHARGSNRTPAIMRLVLGACVPGLLTLTWLYGPGTLLNLAWASLVALACEAAMLALRKRPPGVFLKDGSALVTALLLAVALPPYAPWWLTLVATFFALVFGKHLYGGLGQNPFNPAMLGYVVALVSFPLEMTRWPSPDSALGLPDSLREFLGLATRPDAWAHATALDVLKTDRSLTVDELFAGNPAFGHLGSAGSEWVNLAFLLGGLFLLWRRLFTWHAPLGMLAGLFAMSLLFWNGSGSDSHGSPLFHLFSGATMLGAFFIVTDPVSGATSNRGRLVFGLGVGVLTYVIRAWGGYPDGVAFAVLLMNLAAPTIDYYTRPRTYGHRKAERGFKAGD”: the protein production result is on record as “failed”.

As to “MAGQTEQVLNGVLEDIEHGRLGPGDLLEEAALTERHGVSRTPVREALIQLETQGLIRRLPRKGAVVFKPTLEEFLAILEVHARLEGQAAGLAARRMNATQAAELEAVVAACEAHARDKGDGDPFGYYRLNLRFHETVALGAGNPYLVEMIKTHARKLLAYYRARYSYPGSIPASAREHRQIATLIFDRRREEAEAAMIRHVQFDQVTVMDLLAALG”, the protein production result is “failed”.

Take “SVMCAAIAAGAFAQGQGQGLAGINEATSLMTSYFDPATKLCYAIGAVLGLVGGIKTYGKFSSGDPDTSKTAASWFFACIFLIVAATILRSFF”: the protein production entry is “failed”.

In the case of “DKCKKVYENYPVSKCQLANQCNYDCKLDKHARSGECFYDEKRNLQCICDYCEY”, the protein production result is recorded as “not failed”.

For “MGWVRTKALTMEQPSAPSLTRWLFAGVLMAIIGVLLFILHASGTVKIISVINIWWVSLMPAGCWLLIFCLRCYLWDRDLKAHQFLLKEAEYGQQRWEDWAGRWLAVLSSAVLLPDHISAAHWGSERPQQYGLARRINYLPVEEPVQLSAMHALLTSIEERVQCLPEELPLYVTLITDNPSPELTSSFSNLWKEHIPGRAVPDDITVTGSFSLSEVEERLKQPVLTVNLLLVIQLNGGTAYSDGLAVLLLTSDDVAQKYHLPHSSRLLRPMPLDMTNFEDDITLFLETQTVACQTPSVIGDAKKWTERSAALITQGGKMHTPWKAEDIALLEKWCGIPGPAAPWLLTALAADLVSLRKQPLLALFSSEQEHFISTITPGSEDDYTG”, the protein production entry is recorded as “failed”.
